From the supplement of paper PMC10126150
± gives the standard deviation of the averaged measurements.

test system: ATP; assay: switch fluorescence ratio, 500 uM ATP over buffer (Cy3 cluster intensity, sum of 5 cycles each) (fold (ratio)); higher = stronger signal-on switching upon ATP binding; sequences stand for … in TCGTCGGCAGCGTCAGATGTGTATAAGAGACAGTTTTTTTTTTTTTTTTTTTTTTTTT…TC; conditions: aptamer strand: ATP DNA aptamer (quencher-CACCTGGGGGAGTATTGCGGAGGAAGG + anchor), 100 nM annealed; ATP concentration: 500 uM
Summary of the method: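 Exposure to 500 uM ATP lasted 15 min at 22 °C before imaging, and a selection-buffer image was taken beforehand, for Cy3-labelled switching-strand clusters on a modified Illumina MiSeq flow-cell annealed to 100 nM quencher-labelled ATP aptamer. Five buffer/ATP cycles were run with NaOH stripping and re-annealing between them. The fluorescence ratio per cluster is summed target-cycle over summed buffer-cycle Cy3 intensity, averaged per switch-domain sequence. Clusters outside 100-1000 RFU were excluded.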

Sequence | switch fluorescence ratio
TTGGGGGCTA | 1 ± 0.04
CGGGGGGGCT | 0.997 ± 0.026
TCGGAGGCTT | 1 ± 0.027
GTGGGTGAC | 0.977 ± 0.049
TTTGTTTGGT | 0.985 ± 0.036
ATTGGGGGAC | 0.98 ± 0.03
GAGGGATAAA | 1.003 ± 0.0018
TTCATTGTTA | 1.03 ± 0.049
TTCGTCAGGA | 0.978 ± 0.036
CATACAATAT | 1.109 ± 0.0014
AAGTACGTTA | 1.25 ± 0.029
ATCAATTGAT | 1.01 ± 0.052
ACGGCGCTGG | 1.02 ± 0.017
AGGATCAACG | 0.984 ± 0.034
CGAAAAGTTT | 0.994 ± 0.023
TGATGGGCGG | 0.9957 ± 0.008
CTTAGGGGAT | 1.03 ± 0.047
AGGGTCGGAC | 1.01 ± 0.012
GACATTCACC | 1.1 ± 0.016
TGATAAAAAT | 0.993 ± 0.027
TGCTCTACGG | 1 ± 0.018
GGGTAAAGTC | 0.994 ± 0.047
CATAATTGGG | 0.995 ± 0.028

Sequence | switch fluorescence ratio
CATTCACATT | 1.05 ± 0.034
TGGTTTTATT | 1.01 ± 0.043
GGGACGTGTT | 1.02 ± 0.028
GGGTGTAAGG | 0.998 ± 0.022
AGGGGCGCCG | 1 ± 0.06
ATGGAAAGTT | 0.99 ± 0.035
GCCAATTAAT | 1.01 ± 0.012
ATAGAATCAA | 1.02 ± 0.022
ATTCGGTAA | 0.9962 ± 0.0072
TCTCTTAAGT | 0.989 ± 0.012
GGGGCGGTGC | 1.03 ± 0.023
TAAGAGACGA | 0.98 ± 0.024
TGATAATCTT | 0.99 ± 0.028
TCTTTCCTTC | 1.04 ± 0.12
CGTTGGAAGG | 0.985 ± 0.021
TTAATTTGTC | 1.03 ± 0.061
AGGCGCTAT | 1.04 ± 0.021
GGCATAATTT | 1.016 ± 0.008
ATTGGACAGT | 1 ± 0.075
ATGATACTTC | 0.9968 ± 0.0027
CGTGGAGGGA | 1.01 ± 0.027
GAGGGGTGGA | 0.996 ± 0.015
AACGGATGAG | 0.987 ± 0.038

Sequence | switch fluorescence ratio
TCGGTTAAGT | 1.02 ± 0.031
ACTTAAGGTC | 1.001 ± 0.0035
TTGTTGGTAG | 1.03 ± 0.031
TAGTTTTGTG | 1.01 ± 0.062
ATCAGGGACA | 1.18 ± 0.017
CAGTAGGTCT | 1.01 ± 0.027
TTAGGTTGGC | 1 ± 0.069
AGCGTCGTTC | 1.03 ± 0.023
CTCACAGGGG | 3.62 ± 0.1
AAAGGGTTCT | 0.994 ± 0.04
TTCTCGGGCT | 0.994 ± 0.031
TAGAGAGCCA | 1.03 ± 0.041
GATAGACGAG | 1.03 ± 0.043
TCATTATAAT | 1.006 ± 0.0062
TGGCTAAGGT | 1.023 ± 0.0017
GAAGCTGCTT | 0.9908 ± 0.0073
GGATCGGATT | 0.979 ± 0.023
GGACGGGATT | 1.02 ± 0.068
TCGGAATGTG | 1.01 ± 0.045
ACTTACTTTA | 1.18 ± 0.04
ACTCGTAGCA | 1.19 ± 0.012
GGCTAGTACT | 1.01 ± 0.011
GACGATTGTG | 0.991 ± 0.07

Sequence | switch fluorescence ratio
GTTCTAGATT | 1.03 ± 0.067
GGGGGGAAAG | 0.98 ± 0.029
CAGATAGAAG | 0.999 ± 0.012
GTGCTACGTG | 0.966 ± 0.059
GGGTTGAAGT | 0.985 ± 0.008
TTGGATTAGG | 1.01 ± 0.024
GTTTTTCTTT | 0.988 ± 0.024
GGGGGTACAT | 0.99 ± 0.011
AGGCGCAGGG | 0.9982 ± 0.0089
CAGGGTACGG | 1.01 ± 0.052
TGAGTTATGC | 0.953 ± 0.015
TCGGGCGG | 1.03 ± 0.014
ATTTTTGTCT | 0.983 ± 0.06
TGCATTGGG | 0.975 ± 0.058
AGGGGATGCT | 1.01 ± 0.016
GGGTGGGTAG | 0.955 ± 0.037
ACGTAGGGTT | 1.08 ± 0.012
GGTGGGGGCG | 1 ± 0.024
AAAGACATGG | 0.989 ± 0.017
TGAGTTGGGG | 0.967 ± 0.016
GGTTATTTA | 0.992 ± 0.035
GGAGGCAAGG | 1.1 ± 0.054
GCGGGTTTGG | 1.01 ± 0.018

Sequence | switch fluorescence ratio
TGGGACGTAC | 1.79 ± 0.15
GTTTTATGGA | 0.983 ± 0.034
CATGACTAGA | 0.981 ± 0.014
GGGATTGATC | 1.02 ± 0.021
ATTGTTTACA | 0.969 ± 0.051
CATGGGGGAG | 0.978 ± 0.035
TCTAGGAGGG | 0.998 ± 0.016
TACTGATCGT | 1.04 ± 0.024
CCGATGTGTC | 2.42 ± 0.52
TAGCTGAGGT | 1.03 ± 0.017
CACCCGGGCA | 1.07 ± 0.06
GGTGGTTGGG | 1.01 ± 0.038
GATTTCATGG | 0.9784 ± 0.0044
TTCGGGACGC | 1.03 ± 0.053
AGGGGGTGCT | 0.997 ± 0.028
GACGGGGGTA | 1.04 ± 0.043
TTGTGGCGTG | 1 ± 0.034
AAGGCTTTTT | 0.9935 ± 0.0077
ATTTAACGTC | 1.02 ± 0.08
TTAGTTGGCA | 0.981 ± 0.016
TGATAATTGT | 1.01 ± 0.034
GCACGGCGTA | 1.04 ± 0.038
GGTATTTTTT | 0.997 ± 0.025

Sequence | switch fluorescence ratio
GGGGGAGAGG | 0.99 ± 0.029
TAAACTCCA | 1.05 ± 0.042
TTGGGACTTA | 1.01 ± 0.03
CGTTAGTATT | 0.9936 ± 0.00056
GGTTTAGTCA | 0.9719 ± 0.00067
AGGTTGGGGT | 1.01 ± 0.036
GACTTGAGGT | 1.03 ± 0.025
CCCTTGTCCG | 1.05 ± 0.037
TGAAGGGGGA | 0.995 ± 0.041
CTGGGGGGGT | 0.994 ± 0.036
TAGGTCAATC | 1.026 ± 0.0029
TAGGTGAGTT | 1.04 ± 0.047
TGGGAAATCT | 1.17 ± 0.25
AAATAGATCG | 1.05 ± 0.066
GGGATGCGTG | 0.991 ± 0.043
ATATGGTGGG | 1.01 ± 0.025
ACTGTTAGTG | 1.02 ± 0.034
GGGGAGGGCT | 0.964 ± 0.033
TATGTCTTAT | 0.983 ± 0.027
GGGTGTGTGT | 1.02 ± 0.017
TACATTTTAC | 1.151 ± 0.0082
AGCTGACTGC | 1.01 ± 0.025
GTAATTTGTT | 1.01 ± 0.014

Sequence | switch fluorescence ratio
ATGACATGGG | 1.04 ± 0.025
ACGGACAATC | 1.47 ± 0.099
TACGAATAGG | 1.017 ± 0.0043
GTAAAAGTTG | 1 ± 0.026
TCGCTTGGGA | 1.03 ± 0.017
TAGAGGTATG | 1.01 ± 0.028
TTTGCCTTGC | 1.11 ± 0.067
AATCTACTGA | 1.013 ± 0.01
CCTCTAAGTT | 1.27 ± 0.054
GAGTGGGAGG | 1.02 ± 0.026
CGAGTGGCGG | 0.968 ± 0.023
AAAGTTTATG | 1.007 ± 0.0053
TTGTGTAGGC | 0.984 ± 0.025
GGGGTTACTG | 0.993 ± 0.034
TCGTAGCAGG | 1.12 ± 0.14
ATAGGTCTTA | 0.983 ± 0.04
TTTTTCTATG | 0.983 ± 0.05
TCGTATGGGT | 1 ± 0.045
ATAGGCGGGT | 1.004 ± 0.005
